According to IntAct's records for PubMed 17719540:

B1: Type 3 secretion system translocon protein SctE (Shigella flexneri), P18011 (parent)
chain: MHNVSTTTTGFPLAKILTSTELGDNTIQAANDAANKLFSLTIADLTANQNINTTNAHSTSNILIPELKAPKSLNASSQLTLLIGNLIQILGEKSLTALTNKITAWKSQQQARQQKNLEFSDKINTLLSETEGLTRDYEKQINKLKNADSKIKDLENKINQIQTRLSELDPESPEKKKLSREEIQLTIKKDAAVKDRTLIEQKTLSIHSKLTDKSMQLEKEIDSFSAFSNTASAEQLSTQQKSLTGLASVTQLMATFIQLVGKNNEESLKNDLALFQSLQESRKTEMERKSDEYAAEVRKAEELNRVMGCVGKILGALLTIVSVVAAAFSGGASLALAAVGLALMVTDAIVQAATGNSFMEQALNPIMKAVIEPLIKLLSDAFTKMLEGLGVDSKKAKMIGSILGAIAGALVLVAAVVLVATVGKQAAAKLAENIGKIIGKTLTDLIPKFLKNFSSQLDDLITNAVARLNKFLGAAGDEVISKQIISTHLNQAVLLGESVNSATQAGGSVASAVFQNSASTNLADLTLSKYQVEQLSKYISEAIEKFGQLQEVIADLLASMSNSQANRTDVAKAILQQTTA

Variants of: B1
Conditions: with md2l2_human MAD2L2, Q9UI95
Chain of md2l2_human MAD2L2, Q9UI95 (Q9UI95 whole entry): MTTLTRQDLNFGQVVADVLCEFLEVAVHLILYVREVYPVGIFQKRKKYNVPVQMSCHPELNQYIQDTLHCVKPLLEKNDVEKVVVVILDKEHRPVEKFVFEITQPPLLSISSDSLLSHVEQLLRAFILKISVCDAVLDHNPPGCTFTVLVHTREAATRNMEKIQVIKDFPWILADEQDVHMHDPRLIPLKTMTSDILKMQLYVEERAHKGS

Variant	effect of a mutation on the interaction
MHNVSTTTTGFPLAKILTSTELGDNTIQAANDAANKLFSLTIADLTANQNINTTNAHSTSAILIPELKAPKSLNASSQLTLLIGNLIQILGEKSLTALTNKITAWKSQQQARQQKNLEFSDKINTLLSETEGLTRDYEKQINKLKNADSKIKDLENKINQIQTRLSELDPESPEKKKLSREEIQLTIKKDAAVKDRTLIEQKTLSIHSKLTDKSMQLEKEIDSFSAFSNTASAEQLSTQQKSLTGLASVTQLMATFIQLVGKNNEESLKNDLALFQSLQESRKTEMERKSDEYAAEVRKAEELNRVMGCVGKILGALLTIVSVVAAAFSGGASLALAAVGLALMVTDAIVQAATGNSFMEQALNPIMKAVIEPLIKLLSDAFTKMLEGLGVDSKKAKMIGSILGAIAGALVLVAAVVLVATVGKQAAAKLAENIGKIIGKTLTDLIPKFLKNFSSQLDDLITNAVARLNKFLGAAGDEVISKQIISTHLNQAVLLGESVNSATQAGGSVASAVFQNSASTNLADLTLSKYQVEQLSKYISEAIEKFGQLQEVIADLLASMSNSQANRTDVAKAILQQTTA [N61A]	decreasing interaction

Variants of: B1
Conditions: with ipgc_shifl ipgC

Variant	effect of a mutation on the interaction
MHNVSTTTTGFPLAKILTSTELGDNTIQAANDAANKLFSLTIADLTANQNINTTNAHSTSNILIPEAKAPKSLNASSQLTLLIGNLIQILGEKSLTALTNKITAWKSQQQARQQKNLEFSDKINTLLSETEGLTRDYEKQINKLKNADSKIKDLENKINQIQTRLSELDPESPEKKKLSREEIQLTIKKDAAVKDRTLIEQKTLSIHSKLTDKSMQLEKEIDSFSAFSNTASAEQLSTQQKSLTGLASVTQLMATFIQLVGKNNEESLKNDLALFQSLQESRKTEMERKSDEYAAEVRKAEELNRVMGCVGKILGALLTIVSVVAAAFSGGASLALAAVGLALMVTDAIVQAATGNSFMEQALNPIMKAVIEPLIKLLSDAFTKMLEGLGVDSKKAKMIGSILGAIAGALVLVAAVVLVATVGKQAAAKLAENIGKIIGKTLTDLIPKFLKNFSSQLDDLITNAVARLNKFLGAAGDEVISKQIISTHLNQAVLLGESVNSATQAGGSVASAVFQNSASTNLADLTLSKYQVEQLSKYISEAIEKFGQLQEVIADLLASMSNSQANRTDVAKAILQQTTA [L67A]	decreasing interaction
